Reference: patent US20220017863

Columns and labels:
[1] = target: T1, Hydroxyacyl-CoA Dehydrogenase Trifunctional Multienzyme Complex Subunit Beta (HADHB), Q99JY0
T1 chain: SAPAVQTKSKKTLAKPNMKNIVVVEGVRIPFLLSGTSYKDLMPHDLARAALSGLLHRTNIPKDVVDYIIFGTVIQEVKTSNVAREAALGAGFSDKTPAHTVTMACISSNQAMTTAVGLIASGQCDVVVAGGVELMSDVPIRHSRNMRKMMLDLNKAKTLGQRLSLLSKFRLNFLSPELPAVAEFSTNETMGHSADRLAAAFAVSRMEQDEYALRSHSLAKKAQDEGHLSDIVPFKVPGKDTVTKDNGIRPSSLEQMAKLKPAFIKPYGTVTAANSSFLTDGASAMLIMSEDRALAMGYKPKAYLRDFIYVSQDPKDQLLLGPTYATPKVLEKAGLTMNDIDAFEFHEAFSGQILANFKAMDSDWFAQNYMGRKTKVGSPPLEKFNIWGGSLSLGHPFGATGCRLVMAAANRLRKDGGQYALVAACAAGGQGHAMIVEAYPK

[2] = target: T2, aconitase 2 (ACO2), Q99KI0
T2 chain: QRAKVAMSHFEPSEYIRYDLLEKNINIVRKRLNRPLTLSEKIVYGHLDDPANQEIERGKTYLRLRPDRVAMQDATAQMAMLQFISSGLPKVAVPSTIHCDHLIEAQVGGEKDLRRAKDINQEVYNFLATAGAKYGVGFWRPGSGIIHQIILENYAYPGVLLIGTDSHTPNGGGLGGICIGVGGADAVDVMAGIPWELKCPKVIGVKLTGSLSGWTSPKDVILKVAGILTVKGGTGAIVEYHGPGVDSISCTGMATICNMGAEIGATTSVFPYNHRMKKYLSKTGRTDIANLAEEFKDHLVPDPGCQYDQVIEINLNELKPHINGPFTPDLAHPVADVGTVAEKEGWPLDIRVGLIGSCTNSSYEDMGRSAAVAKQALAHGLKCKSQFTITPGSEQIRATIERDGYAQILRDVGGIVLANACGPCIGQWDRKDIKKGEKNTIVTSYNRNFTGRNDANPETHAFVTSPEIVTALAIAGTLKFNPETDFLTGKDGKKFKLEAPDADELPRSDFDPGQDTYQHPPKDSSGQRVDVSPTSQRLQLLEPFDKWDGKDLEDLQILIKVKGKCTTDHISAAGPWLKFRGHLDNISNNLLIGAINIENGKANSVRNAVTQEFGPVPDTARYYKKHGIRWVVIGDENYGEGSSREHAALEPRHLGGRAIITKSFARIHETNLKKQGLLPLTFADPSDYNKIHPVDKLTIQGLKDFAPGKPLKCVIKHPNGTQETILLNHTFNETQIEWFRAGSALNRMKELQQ

[3] = target: T3, aldolase A (ALDOA), P05064
T3 chain: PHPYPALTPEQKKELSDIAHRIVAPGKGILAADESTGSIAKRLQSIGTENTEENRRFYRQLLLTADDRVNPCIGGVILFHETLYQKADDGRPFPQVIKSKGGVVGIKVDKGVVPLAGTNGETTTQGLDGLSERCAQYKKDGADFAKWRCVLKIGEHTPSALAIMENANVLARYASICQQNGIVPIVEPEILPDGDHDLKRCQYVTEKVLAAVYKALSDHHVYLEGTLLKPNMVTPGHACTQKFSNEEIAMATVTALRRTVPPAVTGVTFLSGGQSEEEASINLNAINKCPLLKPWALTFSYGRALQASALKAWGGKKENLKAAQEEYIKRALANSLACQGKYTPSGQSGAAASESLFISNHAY

[4] = target: T4, enolase 1 (ENO1), P17182
T4 chain: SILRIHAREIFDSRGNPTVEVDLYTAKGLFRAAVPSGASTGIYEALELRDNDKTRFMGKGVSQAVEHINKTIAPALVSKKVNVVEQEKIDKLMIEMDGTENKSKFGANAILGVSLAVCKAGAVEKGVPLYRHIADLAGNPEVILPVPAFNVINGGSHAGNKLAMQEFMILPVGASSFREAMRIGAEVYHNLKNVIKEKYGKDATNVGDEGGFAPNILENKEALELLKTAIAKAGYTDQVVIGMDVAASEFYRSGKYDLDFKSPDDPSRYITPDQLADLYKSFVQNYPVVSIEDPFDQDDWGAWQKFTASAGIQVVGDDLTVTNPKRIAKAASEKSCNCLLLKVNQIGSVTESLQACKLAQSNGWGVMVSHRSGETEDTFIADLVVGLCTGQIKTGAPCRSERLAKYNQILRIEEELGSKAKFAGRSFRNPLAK

[5] = target: glutamate dehydrogenase (GDH), P26443
[6] = target: T5, glutaminase (GLS), D3Z7P3
T5 chain: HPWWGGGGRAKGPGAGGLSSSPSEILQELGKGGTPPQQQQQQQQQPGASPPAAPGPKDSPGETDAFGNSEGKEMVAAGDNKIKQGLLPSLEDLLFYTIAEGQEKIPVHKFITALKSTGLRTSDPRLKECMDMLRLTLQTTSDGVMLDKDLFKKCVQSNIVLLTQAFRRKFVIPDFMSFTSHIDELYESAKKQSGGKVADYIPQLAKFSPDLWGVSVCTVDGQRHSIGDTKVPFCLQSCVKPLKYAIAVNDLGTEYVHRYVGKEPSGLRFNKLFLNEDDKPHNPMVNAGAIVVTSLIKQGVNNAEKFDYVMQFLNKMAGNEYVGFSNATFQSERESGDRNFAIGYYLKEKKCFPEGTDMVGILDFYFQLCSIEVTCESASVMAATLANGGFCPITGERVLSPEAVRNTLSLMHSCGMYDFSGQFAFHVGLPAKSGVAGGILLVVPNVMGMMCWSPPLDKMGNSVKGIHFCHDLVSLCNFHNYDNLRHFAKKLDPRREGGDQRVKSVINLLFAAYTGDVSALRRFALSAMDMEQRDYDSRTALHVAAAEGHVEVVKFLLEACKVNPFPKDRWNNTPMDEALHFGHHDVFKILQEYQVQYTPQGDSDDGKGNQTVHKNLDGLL

[7] = target: glyceraldehyde-3-phosphate dehydrogenase (GAPDH), P16858
[8] = target: T6, isocitrate dehydrogenase, P54071
T6 chain: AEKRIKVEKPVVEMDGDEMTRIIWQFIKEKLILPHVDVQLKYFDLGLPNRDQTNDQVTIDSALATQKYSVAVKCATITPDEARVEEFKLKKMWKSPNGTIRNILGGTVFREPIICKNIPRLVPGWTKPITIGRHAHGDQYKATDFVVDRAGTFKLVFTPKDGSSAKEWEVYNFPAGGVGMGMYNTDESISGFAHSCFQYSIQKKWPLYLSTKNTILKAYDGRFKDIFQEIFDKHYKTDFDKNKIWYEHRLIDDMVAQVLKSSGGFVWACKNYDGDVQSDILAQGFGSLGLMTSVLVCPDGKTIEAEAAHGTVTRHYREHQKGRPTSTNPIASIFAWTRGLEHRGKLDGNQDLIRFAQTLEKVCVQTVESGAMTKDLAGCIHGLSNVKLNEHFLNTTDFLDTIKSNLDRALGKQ

[9] = target: lactate dehydrogenase (LDH), P06151
[10] = target: T7, malate dehydrogenase, P08249
T7 chain: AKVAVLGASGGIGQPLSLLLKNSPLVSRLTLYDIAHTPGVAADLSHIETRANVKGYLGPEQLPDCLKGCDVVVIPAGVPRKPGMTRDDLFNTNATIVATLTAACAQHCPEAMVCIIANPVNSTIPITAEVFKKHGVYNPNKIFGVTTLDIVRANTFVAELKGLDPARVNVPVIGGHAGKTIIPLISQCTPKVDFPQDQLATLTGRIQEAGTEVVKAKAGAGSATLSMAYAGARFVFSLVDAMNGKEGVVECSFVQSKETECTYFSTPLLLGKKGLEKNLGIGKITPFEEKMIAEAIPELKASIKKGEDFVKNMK

[11] = target: T8, phosphoglycerate kinase 1 (PGK1), P09411
T8 chain: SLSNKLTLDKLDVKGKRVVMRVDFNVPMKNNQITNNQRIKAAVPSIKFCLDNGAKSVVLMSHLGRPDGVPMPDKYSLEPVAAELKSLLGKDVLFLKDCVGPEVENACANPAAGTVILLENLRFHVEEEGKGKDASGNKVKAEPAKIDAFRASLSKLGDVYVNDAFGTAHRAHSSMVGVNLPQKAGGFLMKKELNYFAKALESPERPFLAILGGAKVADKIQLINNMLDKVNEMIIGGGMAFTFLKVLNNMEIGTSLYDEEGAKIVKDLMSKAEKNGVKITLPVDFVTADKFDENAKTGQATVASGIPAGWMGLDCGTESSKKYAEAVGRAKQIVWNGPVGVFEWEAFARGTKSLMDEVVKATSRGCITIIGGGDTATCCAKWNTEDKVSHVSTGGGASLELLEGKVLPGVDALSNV

[12] = target: pyruvate kinase M (PKM), P52480
[13] = target: succinate dehydrogenase subunit alpha (SDHA), Q8K2B3
[14] = target: succinate-CoA ligase alpha subunit (SUCLG1), Q9WUM5
Sequence of succinate-CoA ligase alpha subunit (SUCLG1), Q9WUM5 (Q9WUM5 35-346): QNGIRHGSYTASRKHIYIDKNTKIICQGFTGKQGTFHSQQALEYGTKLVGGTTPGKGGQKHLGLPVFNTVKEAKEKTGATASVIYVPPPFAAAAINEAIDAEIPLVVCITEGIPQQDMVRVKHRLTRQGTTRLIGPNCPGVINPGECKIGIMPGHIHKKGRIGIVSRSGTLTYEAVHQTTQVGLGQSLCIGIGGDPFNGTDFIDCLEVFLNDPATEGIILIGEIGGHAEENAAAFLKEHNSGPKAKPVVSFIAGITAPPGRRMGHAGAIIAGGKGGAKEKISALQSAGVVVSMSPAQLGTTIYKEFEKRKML

Sequence of succinate dehydrogenase subunit alpha (SDHA), Q8K2B3 (Q8K2B3 43-664): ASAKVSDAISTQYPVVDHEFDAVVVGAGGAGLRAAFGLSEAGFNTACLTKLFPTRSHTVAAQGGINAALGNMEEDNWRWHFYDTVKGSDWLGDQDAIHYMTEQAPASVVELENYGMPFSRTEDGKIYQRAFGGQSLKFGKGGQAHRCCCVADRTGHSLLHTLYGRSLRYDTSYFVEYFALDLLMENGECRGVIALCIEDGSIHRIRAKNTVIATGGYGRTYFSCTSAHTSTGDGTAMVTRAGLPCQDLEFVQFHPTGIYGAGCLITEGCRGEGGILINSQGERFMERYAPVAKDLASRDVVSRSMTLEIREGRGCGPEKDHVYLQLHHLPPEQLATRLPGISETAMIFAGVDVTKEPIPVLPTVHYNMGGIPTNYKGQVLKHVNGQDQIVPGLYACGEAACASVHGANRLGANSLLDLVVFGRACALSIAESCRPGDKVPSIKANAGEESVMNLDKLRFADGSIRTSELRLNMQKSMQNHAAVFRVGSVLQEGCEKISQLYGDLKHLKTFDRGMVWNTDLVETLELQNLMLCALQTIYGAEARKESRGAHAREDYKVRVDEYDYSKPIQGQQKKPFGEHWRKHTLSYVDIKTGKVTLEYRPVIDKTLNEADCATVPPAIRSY
Sequence of pyruvate kinase M (PKM), P52480 (P52480 whole entry): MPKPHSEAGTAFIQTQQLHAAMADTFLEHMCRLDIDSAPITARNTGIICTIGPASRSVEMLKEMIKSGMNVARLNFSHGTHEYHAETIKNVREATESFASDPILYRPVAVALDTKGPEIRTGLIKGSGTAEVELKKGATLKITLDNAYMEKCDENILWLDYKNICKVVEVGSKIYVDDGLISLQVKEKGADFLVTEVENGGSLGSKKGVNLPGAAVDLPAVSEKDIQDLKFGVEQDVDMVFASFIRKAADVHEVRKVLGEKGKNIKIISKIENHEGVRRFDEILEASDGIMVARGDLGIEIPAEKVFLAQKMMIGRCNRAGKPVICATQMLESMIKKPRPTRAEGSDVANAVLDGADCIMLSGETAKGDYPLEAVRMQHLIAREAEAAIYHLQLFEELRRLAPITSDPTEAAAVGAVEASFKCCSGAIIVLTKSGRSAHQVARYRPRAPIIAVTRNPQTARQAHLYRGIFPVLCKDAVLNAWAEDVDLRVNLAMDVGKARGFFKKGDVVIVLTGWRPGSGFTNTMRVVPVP
Sequence of glutamate dehydrogenase (GDH), P26443 (P26443 54-558): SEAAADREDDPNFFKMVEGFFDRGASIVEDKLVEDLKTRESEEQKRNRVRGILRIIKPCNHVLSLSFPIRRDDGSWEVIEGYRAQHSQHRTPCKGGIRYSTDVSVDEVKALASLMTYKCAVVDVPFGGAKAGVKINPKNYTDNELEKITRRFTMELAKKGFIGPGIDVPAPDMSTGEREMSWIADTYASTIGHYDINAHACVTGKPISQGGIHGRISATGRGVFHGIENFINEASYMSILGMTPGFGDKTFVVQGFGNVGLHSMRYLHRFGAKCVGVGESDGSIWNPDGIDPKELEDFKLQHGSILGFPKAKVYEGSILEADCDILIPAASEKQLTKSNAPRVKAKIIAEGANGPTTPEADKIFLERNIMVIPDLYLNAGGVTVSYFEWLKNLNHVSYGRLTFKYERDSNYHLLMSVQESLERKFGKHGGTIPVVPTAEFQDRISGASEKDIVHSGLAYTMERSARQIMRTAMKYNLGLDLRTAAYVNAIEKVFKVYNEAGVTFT
Sequence of glyceraldehyde-3-phosphate dehydrogenase (GAPDH), P16858 (P16858 whole entry): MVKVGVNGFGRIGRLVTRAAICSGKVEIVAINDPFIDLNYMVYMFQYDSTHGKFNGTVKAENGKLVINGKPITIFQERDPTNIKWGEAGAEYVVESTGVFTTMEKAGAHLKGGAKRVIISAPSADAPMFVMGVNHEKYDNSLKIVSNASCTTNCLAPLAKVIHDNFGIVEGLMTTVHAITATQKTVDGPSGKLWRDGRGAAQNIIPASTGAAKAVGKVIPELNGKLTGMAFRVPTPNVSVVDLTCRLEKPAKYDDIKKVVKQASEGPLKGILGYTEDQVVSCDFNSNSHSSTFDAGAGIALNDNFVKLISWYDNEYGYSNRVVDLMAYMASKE

B1: Sirt2 (protein)
chain: AEPDPSDPLETQAGKVQEAQDSDSDTEGGATGGEAEMDFLRNLFTQTLGLGSQKERLLDELTLEGVTRYMQSERCRKVICLVGAGISTSAGIPDFRSPSTGLYANLEKYHLPYPEAIFEISYFKKHPEPFFALAKELYPGQFKPTICHYFIRLLKEKGLLLRCYTQNIDTLERVAGLEPQDLVEAHGTFYTSHCVNTSCRKEYTMGWMKEKIFSEATPRCEQCQSVVKPDIVFFGENLPSRFFSCMQSDFSKVDLLIIMGTSLQVQPFASLISKAPLATPRLLINKEKTGQTDPFLGMMMGLGGGMDFDSKKAYRDVAWLGDCDQGCLALADLLGWKKELEDLVRREHANIDAQSGSQAPNPSTTISPGKSPPPAKEAARTKEKEEQQ
[1]
  acetylated peptide intensity (acetyl-lysine IP, LC-MS/MS, EIC): peptide GQQQVFKGLNDK (SEQ ID NO:12) from HADHB ... acetylation site K406 ... increased acetylation intensity in Sirt2^-/- sample versus WT
[2]
  acetylated peptide intensity (acetyl-lysine IP, LC-MS/MS, EIC): peptide NFTGRNDANPETHAFVTSPEIVTALAIAGTLKFNPETDFLTGKDGK (SEQ ID NO:7) from aconitase 2 ... acetylation site K506 ... increased acetylation intensity in Sirt2^-/- sample versus WT
[3]
  acetylated peptide intensity (acetyl-lysine IP, LC-MS/MS, EIC): peptide GILAADESTGSIAKR (SEQ ID NO:1) from aldolase A ... acetylation site K42 ... increased acetylation intensity in Sirt2^-/- sample versus WT
[4]
  acetylated peptide intensity (acetyl-lysine IP, LC-MS/MS, EIC): peptide SCNCLLLKVNQIGSVTESLQACK (SEQ ID NO:2) from enolase 1 ... acetylation site K343 ... increased acetylation intensity in Sirt2^-/- sample versus WT
[5]
  acetylated peptide intensity (acetyl-lysine IP, LC-MS/MS, EIC): peptide LTFKYER (SEQ ID NO:14) from GDH ... acetylation site K457 ... increased acetylation intensity in Sirt2^-/- sample versus WT
[6]
  acetylated peptide intensity (acetyl-lysine IP, LC-MS/MS, EIC): peptide FITALKSTG (SEQ ID NO:13) from GLS ... acetylation site K169 ... increased acetylation intensity in Sirt2^-/- sample versus WT
[7]
  acetylated peptide intensity (acetyl-lysine IP, LC-MS/MS, EIC): peptide WGEAGAEYVVESTGVFTTMEKAGAHLK (SEQ ID NO:5) from glyceraldehyde-3-phosphate dehydrogenase ... acetylation site K105 ... increased acetylation intensity in Sirt2^-/- sample versus WT
[8]
  acetylated peptide intensity (acetyl-lysine IP, LC-MS/MS, EIC): peptide NILGGTVFREPIICKNIPR (SEQ ID NO:8) from isocitrate dehydrogenase ... acetylation site K155 ... increased acetylation intensity in Sirt2^-/- sample versus WT
[9]
  acetylated peptide intensity (acetyl-lysine IP, LC-MS/MS, EIC): peptide FIIPNIVKYSPHCK (SEQ ID NO:3) from lactate dehydrogenase ... acetylation site K126 ... increased acetylation intensity in Sirt2^-/- sample versus WT
[10]
  acetylated peptide intensity (acetyl-lysine IP, LC-MS/MS, EIC): peptide ETECTYFSTPLLLGKK (SEQ ID NO:11) from malate dehydrogenase ... acetylation site K296 ... increased acetylation intensity in Sirt2^-/- sample versus WT
[11]
  acetylated peptide intensity (acetyl-lysine IP, LC-MS/MS, EIC): peptide SVVLMSHLGRPDGVPMPDKYSLEPVAAELK (SEQ ID NO:4) from phosphoglycerate kinase 1 ... acetylation site K75 ... increased acetylation intensity in Sirt2^-/- sample versus WT
[12]
  acetylated peptide intensity (acetyl-lysine IP, LC-MS/MS, EIC): peptide CCSGAIIVLTKSGR (SEQ ID NO:6) from pyruvate kinase M ... acetylation site K433 ... increased acetylation intensity in Sirt2^-/- sample versus WT
[13]
  acetylated peptide intensity (acetyl-lysine IP, LC-MS/MS, EIC): peptide ISQLYGDLKHLK (SEQ ID NO:10) from Succinate Dehydrogenase Subunit Alpha ... acetylation site K544 ... increased acetylation intensity in Sirt2^-/- sample versus WT
[14]
  acetylated peptide intensity (acetyl-lysine IP, LC-MS/MS, EIC): peptide SSDEAYAIAKK (SEQ ID NO:9) from Succinyl-CoA Ligase ... acetylation site K125 ... increased acetylation intensity in Sirt2^-/- sample versus WT
